Measured values published in the Immune Epitope Database (IEDB).

What was measured:
HLA-B*07:02 = experiment: IEDB peptide-MHC binding, purified MHC/competitive/radioactivity; filed as Kd, often an IC50 or EC50 that approximates it; ≥ and ≤ were set here for values at or beyond the usual limits of such assays
HLA-B*35:01 = experiment: as above
HLA-B*51:01 = experiment: as above
HLA-B*53:01 = experiment: as above
HLA-B*54:01 = experiment: as above
HLA-A*02:12 [1] = experiment: IEDB peptide-MHC binding, purified MHC/direct/fluorescence; filed as Kd, often an IC50 or EC50 that approximates it; ≥ and ≤ were set here for values at or beyond the usual limits of such assays; conditions: source organism: Vibrio cholerae V52
HLA-A*69:01 = experiment: as above
HLA-A*02:11 = experiment: as above
HLA-A*03:01 [2] = experiment: as above
HLA-A*03:01 [3] = experiment: IEDB peptide-MHC binding, purified MHC/competitive/fluorescence; filed as Kd, often an IC50 or EC50 that approximates it; ≥ and ≤ were set here for values at or beyond the usual limits of such assays
HLA-A*11:01 = experiment: as above
HLA-A*31:01 [4] = experiment: as above
HLA-A*29:02 [5] = experiment: as above
HLA-A*02:01 [6] = experiment: IEDB peptide-MHC binding, purified MHC/direct/fluorescence; filed as Kd, often an IC50 or EC50 that approximates it; ≥ and ≤ were set here for values at or beyond the usual limits of such assays
HLA-A*02:03 = experiment: as above; conditions: source organism: Variola virus
HLA-A*01:01 = experiment: as above; conditions: source organism: Yellow fever virus
HLA-A*29:02 [7] = experiment: as above; conditions: source organism: Yellow fever virus
HLA-A*31:01 [8] = experiment: as above; conditions: source organism: Yellow fever virus
HLA-B*15:01 [9] = experiment: as above; conditions: source organism: Yellow fever virus
HLA-B*18:01 [10] = experiment: as above; conditions: source organism: Yellow fever virus
HLA-B*27:05 = experiment: as above; conditions: source organism: Yellow fever virus
HLA-B*40:01 = experiment: as above; conditions: source organism: Yellow fever virus
HLA-B*44:02 = experiment: as above; conditions: source organism: Yellow fever virus
HLA-B*46:01 [11] = experiment: as above; conditions: source organism: Yellow fever virus
HLA-B*48:01 = experiment: as above; conditions: source organism: Yellow fever virus
HLA-B*57:01 [12] = experiment: as above; conditions: source organism: Yellow fever virus
HLA-B*58:01 = experiment: as above; conditions: source organism: Yellow fever virus
HLA-A*24:03 = experiment: IEDB peptide-MHC binding, purified MHC/competitive/fluorescence; filed as Kd, often an IC50 or EC50 that approximates it; ≥ and ≤ were set here for values at or beyond the usual limits of such assays; conditions: source organism: Burkholderia pseudomallei K96243
HLA-A*26:01 = experiment: as above
HLA-B*15:17 = experiment: as above; conditions: source organism: Burkholderia pseudomallei K96243
HLA-B*18:01 [13] = experiment: as above
HLA-B*27:03 = experiment: as above
HLA-B*39:01 = experiment: as above
HLA-B*46:01 [14] = experiment: as above
HLA-B*57:01 [15] = experiment: as above
HLA-A*02:01 [16] = experiment: as above; conditions: source organism: Listeria monocytogenes EGD-e
HLA-A*02:12 [17] = experiment: as above; conditions: source organism: Listeria monocytogenes EGD-e
HLA-B*15:01 [18] = experiment: as above; conditions: source organism: Listeria monocytogenes EGD-e
[19] = source organism: Triticum aestivum
[20] = source organism: Encephalitozoon cuniculi GB-M1
[21] = source organism: SARS coronavirus Tor2
[22] = source organism: Mammarenavirus guanaritoense
[23] = source organism: Vaccinia virus WR
[24] = source organism: Mammarenavirus brazilense
[25] = source organism: Camelpox virus M-96
[26] = source organism: Yellow fever virus
[27] = source organism: Burkholderia pseudomallei K96243
[28] = source organism: Listeria monocytogenes EGD-e

PPYCTIAPV showed a Kd (HLA-B*07:02; [19]) of 0.206 µM, a Kd (HLA-B*35:01; [19]) of at least 21.5 µM and a Kd (HLA-B*51:01; [19]) of at least 27.4 µM. For the same sequence, the Kd (HLA-B*53:01; [19]) was 11.6 µM and the Kd (HLA-B*54:01; [19]) was 1.08 µM.

FLILCSVLL was tested, and the Kd (HLA-A*02:12 [1]) was 0.007 µM and the Kd (HLA-A*69:01; source organism: Vibrio cholerae) was 4.18 µM.

In the case of QPQEQVPL, the Kd (HLA-B*07:02; [19]) is reported as at least 87.3 µM, the Kd (HLA-B*35:01; [19]) is reported as at least 87.8 µM and the Kd (HLA-B*51:01; [19]) is reported as 0.041 µM. It also gave a Kd (HLA-B*53:01; [19]) of at least 87.7 µM and a Kd (HLA-B*54:01; [19]) of at least 43.2 µM.

RLYNFSFLN was tested, and the Kd (HLA-A*02:11; source organism: Bacillus cereus H3081.97) was at most 0.001 µM and the Kd (HLA-A*03:01 [2]; source organism: Bacillus anthracis) was 0.491 µM.

In the case of ILSFPYLFK, the Kd (HLA-A*03:01 [3]; [20]) is reported as 0.0029 µM, the Kd (HLA-A*11:01; [20]) is reported as 0.0038 µM and the Kd (HLA-A*31:01 [4]; [20]) is reported as at least 20 µM.

MPASWVMRIM showed a Kd (HLA-B*07:02; [21]) of 0.00851 µM, a Kd (HLA-B*35:01; [21]) of 0.0182 µM and a Kd (HLA-B*51:01; [21]) of 0.00861 µM. The Kd (HLA-B*53:01; [21]) was 0.0628 µM and the Kd (HLA-B*54:01; [21]) was 0.0686 µM.

In the case of KPINLSNSV, the Kd (HLA-B*07:02; [22]) is reported as 0.0229 µM, the Kd (HLA-B*35:01; [22]) is reported as 0.188 µM and the Kd (HLA-B*51:01; [22]) is reported as 2.16 µM. For the same sequence, the Kd (HLA-B*53:01; [22]) was 1.15 µM and the Kd (HLA-B*54:01; [22]) was 0.193 µM.

With SPPIPMSRL the Kd (HLA-B*07:02; [23]) was 0.000766 µM, the Kd (HLA-B*35:01; [23]) was at least 53.1 µM and the Kd (HLA-B*51:01; [23]) was 0.912 µM. It also gave a Kd (HLA-B*53:01; [23]) of 9.29 µM and a Kd (HLA-B*54:01; [23]) of at least 41.5 µM.

In the case of DPTFQLLNM, the Kd (HLA-B*07:02; [23]) is reported as at least 77.5 µM, the Kd (HLA-B*35:01; [23]) is reported as 1.13 µM and the Kd (HLA-B*51:01; [23]) is reported as 3.35 µM. It also gave a Kd (HLA-B*53:01; [23]) of 0.237 µM and a Kd (HLA-B*54:01; [23]) of at least 78.1 µM.

For VVIPTAALQ, the Kd (HLA-A*29:02 [5]; source organism: Escherichia coli HS) was 0.744 µM.

Sequence TPTQLAETI has a Kd (HLA-B*07:02; [24]) of 1.8 µM, a Kd (HLA-B*35:01; [24]) of 0.66 µM and a Kd (HLA-B*51:01; [24]) of 1.42 µM. For the same sequence, the Kd (HLA-B*53:01; [24]) was 0.183 µM and the Kd (HLA-B*54:01; [24]) was 15.3 µM.

FLQQSIFRF was tested, and the Kd (HLA-A*02:01 [6]; [25]) was 0.154 µM, the Kd (HLA-A*02:03) was 0.747 µM and the Kd (HLA-A*02:11; source organism: Variola virus) was 0.002 µM. The Kd (HLA-A*69:01; [25]) was at least 20 µM.

VPANSTVLSF was tested, and the Kd (HLA-B*07:02; [21]) was 1.71 µM, the Kd (HLA-B*35:01; [21]) was 0.355 µM and the Kd (HLA-B*51:01; [21]) was 3.25 µM. The Kd (HLA-B*53:01; [21]) was 0.0952 µM and the Kd (HLA-B*54:01; [21]) was 16.9 µM.

PHAATIRVL was tested, and the Kd (HLA-A*01:01) was at least 20 µM, the Kd (HLA-A*02:01 [6]; [26]) was at least 20 µM and the Kd (HLA-A*03:01 [2]; [26]) was at least 20 µM. It also gave a Kd (HLA-A*29:02 [7]) of at least 20 µM, a Kd (HLA-A*31:01 [8]) of at least 20 µM and a Kd (HLA-A*69:01; [26]) of at least 20 µM. It also gave a Kd (HLA-B*15:01 [9]) of at least 20 µM, a Kd (HLA-B*18:01 [10]) of at least 20 µM and a Kd (HLA-B*27:05) of at least 20 µM. For the same sequence, the Kd (HLA-B*40:01) was at least 20 µM, the Kd (HLA-B*44:02) was at least 20 µM and the Kd (HLA-B*46:01 [11]) was at least 20 µM. The Kd (HLA-B*48:01) was at least 20 µM, the Kd (HLA-B*57:01 [12]) was at least 20 µM and the Kd (HLA-B*58:01) was at least 20 µM.

For NPAWRKAVFI, the Kd (HLA-B*07:02; [21]) was 3.37 µM, the Kd (HLA-B*35:01; [21]) was at least 69.9 µM and the Kd (HLA-B*51:01; [21]) was at least 41.4 µM. It also gave a Kd (HLA-B*53:01; [21]) of at least 41.8 µM and a Kd (HLA-B*54:01; [21]) of at least 69.9 µM.

LMRRFRFTV showed a Kd (HLA-A*03:01 [3]; [27]) of at least 20 µM, a Kd (HLA-A*24:03) of at least 20 µM and a Kd (HLA-A*26:01; [27]) of at least 20 µM. The Kd (HLA-A*31:01 [4]; [27]) was 0.262 µM, the Kd (HLA-B*15:17) was at least 20 µM and the Kd (HLA-B*18:01 [13]; [27]) was at least 20 µM. It also gave a Kd (HLA-B*27:03; [27]) of at least 20 µM, a Kd (HLA-B*39:01; [27]) of at least 20 µM and a Kd (HLA-B*46:01 [14]; [27]) of at least 20 µM. The Kd (HLA-B*57:01 [15]; [27]) was at least 20 µM.

In the case of HAGAKSFYK, the Kd (HLA-A*11:01; source organism: Influenza A virus (A/California/04/2009(H1N1))) is reported as 0.0055 µM.

LAIVTTPLV was tested, and the Kd (HLA-A*02:01 [16]) was 0.0272 µM, the Kd (HLA-A*02:12 [17]) was 0.144 µM and the Kd (HLA-A*03:01 [3]; [28]) was at least 20 µM. For the same sequence, the Kd (HLA-A*26:01; [28]) was at least 20 µM, the Kd (HLA-A*29:02 [5]; [28]) was at least 20 µM and the Kd (HLA-B*15:01 [18]) was at least 20 µM. For the same sequence, the Kd (HLA-B*18:01 [13]; [28]) was at least 20 µM, the Kd (HLA-B*27:03; [28]) was at least 20 µM and the Kd (HLA-B*39:01; [28]) was at least 20 µM. The Kd (HLA-B*46:01 [14]; [28]) was at least 20 µM and the Kd (HLA-B*57:01 [15]; [28]) was at least 20 µM.

SPPLISILMI gave a Kd (HLA-B*07:02; [23]) of 1.01 µM, a Kd (HLA-B*35:01; [23]) of at least 69.9 µM and a Kd (HLA-B*51:01; [23]) of 1.15 µM. For the same sequence, the Kd (HLA-B*53:01; [23]) was 2.22 µM and the Kd (HLA-B*54:01; [23]) was 7.63 µM.
